# Measured values taken from patent US20160207996A1 (ARGEN X N V, published 2016).
# What was measured:
# Nt-GCGR-hFc = target: T1, Nt-GCGR-hFc (human, UniProt P47871 26-136); assay: scFv binding ELISA, periplasmic extract on coated Nt-GCGR
# T1 construct: domain: N-terminal domain; also called Nt-GCGR-Fc; recombinant N-terminal domain of GCGR; not shown: hFc
# [1] = target: human Nav1.7 (full length) (human) (UniProt Q15858); assay: cell-based or functional assay
# T1 sequence (P47871 26-136): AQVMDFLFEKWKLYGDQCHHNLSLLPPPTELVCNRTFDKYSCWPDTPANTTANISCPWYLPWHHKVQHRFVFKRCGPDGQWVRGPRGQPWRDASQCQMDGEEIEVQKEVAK
Binder,ScFv binding ELISA signal (Nt-GCGR-hFc),further results
scFv A5 (scFv) ELQLVESGGGLVQPGGSLRLSCAASGSTFSTAAMSWVRQAPGKGLEWVSAISSFGASTSYADSVKGRFTISRDIAKNTLYLQMNSLKPEDAAVYYCANVGLHPSWGFTSGFWGQGTQVTVSSSSALTQPPSVSGSPGKTVTISCAGTSSDVGYGNYVSWYQQLPGMAPKLLIHDVNKRASGITDRFSGSKSGNTASLTISGLQSEDEADYYCASYRRRNEVVFGGGTHLTVLG,1.31,–
"scFv B5 (scFv, part only; not given: GS linker, not shown: small tags and cut ends) scFv, part: EVQLVQPGAELRNPGASVKVSCKASGYTFTSHYIDWVRQAPGQGLEWMGRIDPEDGGTTYEQKFQGRVTFTADTSTSTVYVELSSLRSEDTAVYYCARSTEIPTIRYYGMDYWGKGTPVTVSSQSVLTQPSAVSVSLGQTARITCQGGSLGSYGANWHQQKPGQAPVLLIYGDNSRPSGIPERFSGSKSGGTATLTISGAQAEDEADYYCQSFDYSGNAVFGGGTHLTVLG",0.508,–
scFv C4 (scFv) QVQLQESGPGLVKPSQTLSLTCTVSGGSITTNYYYWSWIRQPPGKGLEWMGAIAYSGSTYYSPSLKSRTSISRDTSKNQFTLQLSSVTPEDTAVYYCARGYYSGSSLDFGSWGQGTQVTVSSLPVLTQPSAVSVSLGQTARITCQGGNVGSYYTSWYQQKPGQAPVLVIYKDSERPSGIPERFSGSSSGNTATLTVSGAQAEDEGDYYCQVWDSSAAVFGGGTHLTVLG,0.274,–
scFv B4 (scFv) EVQVQESGPGLVKPSQTLSLTCTVSGGSITTDYSYWSWIRQPPGKGLEWMGAIAFSDTTYYSPSLKSRTSISRDTSKNQFTLQLSSVTPEDTAVYYCARLSTVAGMDYWGKGTLVTVSSASAAASGSYELTQSPSVSVALRQTAKITCGGNNIGSKSAQWYQQKPGQAPVLVIYADNRRPSEIPERFSGSNSGDTATLTISGAQAEDEADYYCQVWDSSANAAVFGGGTHLTVLG,0.476,–
scFv A8 (scFv) EVQVQESGPGLVKPSQTLSLTCTVSGESITTNYYYWNWIRQPPGKALEWMGAIGDSGTTWYNPSLKSRTSISRDTSKNQFTLQLISVTPEDTAVYYCARGFYDGSSLDFASWGQGTQVTVSSLSYELTQSPSVSVALRQAAKITCGGNNIASKFVNWYQQKPGQAPILVISKDTNRPSGIPERFSGSNSGNTATLTVSGAQAEDEADYYCQVWDGSAAVFGGGTHLTVLG,1.7,–
scFv C2 (scFv) QLQLVESGGGLQQPGGSLRLSCAASGFTFSSYAMGWVRQAPGKGLEWISIILNDGHRTYYTDSVKGRFTISRDNAKDTLSLQMNSLKPEDTAVYFCVKYVLNWAISDWGQGTQVTVSSQSVLTQPPSVSGSPGKTVTISCAGTSSDVGYGNYVSWYQQLPGMAPKLLIYNANKRASGITDRFSASKSGNTASLTISGLQSGDEAVYYCASYRYRDNAVFGGGTHLTVLG,0.465,–
"9A6 (antibody, V domains shown) VH: EVQLVQPGAELRNPGASVKVSCKASGYTYTSAYIVWVRQAPGEGLEWMGRIDPEDGGTKYAQKFQGRVTFTADTSTNTAYVELSSLRSDDTAVYYCTAGLDYWGKGTLVTVSS VL: ATMLTQSPGSLSVVPGESASISCKASQSLVHSDGMTYLYWLQQKPGQSPQRLIYRVSRRGSGVPDRFTGSGSGTDFTLNISDMKAEDAGVYYCAQDTYYPYSFGSGTSVEIK",–,"% inhibition of inward current following P02 voltage protocol, 10 µg/ml [1]: 16.9%; % inhibition of inward current following P02 voltage protocol, 25 µg/ml [1]: 28%; % inhibition of inward current following P02 voltage protocol, 100 µg/ml [1]: 36.2%"
scFv A1 (scFv) QVQLVESGGGLVQPGGSLRLSCAASGFTFSSYAMTWVRQAPGKGLEWVSTITSNGDSTSYADSVKGRFTISRDNAKNTLYLQMDSLKPEDTAVYYCAKLGDGSYWFYYYGMDYWGQGTQVTVTSSSYELTQSSAVSLSLGQTARITCQGDNLGRYYVNWYQQKPGQAPVQVIYGNSNRPSGIPERFSGSSSGGTATLTISGAQAEDEADYYCQTYENSGVNLVFGGGTKLTVLG,2.18,–
scFv D5 (scFv) EVQVQESGGGLVQPGGSLRLSCATSGFTFSNYYMSWVRQAPGKGPEWVSSIYSDLSTTYYADSVKGRFTISRDRAKNTLYLQMNSLKSEDTAVYYCARLSTVAGVDYWGKGTLVTVSSSYELTQSPSVSVALRQTAKITCGGNNIGDKSAQWYQQKPDQAPVLVIYADNRRPSEIPERFSGSNSGDTATLTISGAQAEDEADYYCQVWDSGANAAVFGGGTHLTVLG,0.268,–
scFv A7 (scFv) QLQVVESGGGLVQPGGSLRLSCATSGFTFSNYYMSWVRQAPGKGPEWVSSIYSDLSTTYYADSVKGRFTISRDRAKNTLYLQMNSLKSEDTAVYYCARLSTVAGVDYWGKGTLVTVSSSYELTQSPSVSVALRQTAKITCGGNNIGSKSAQWYQQKPGQAPVLVIYADSRRPSGIPEKFSGSNSGNTATLTISGAQAEDEADYYCQVWDSSANAAVFGGGTHLTVLG,0.394,–
scFv C3 (scFv) QVQRQESGGGLVQPGGSLRLSCATSGFTFSNYYMSWVRQAPGKGPEWVSSIYSDLSTTYYADSVKGRFTISRDRAKNTLYLQMNSLKSEDTAVYYCARLSTVAGVDYWGKGTLVTVSSSYELTQSPSVSVALRQTAKITCGGNNIGSKSAQWYQQKPGQAPVLVIYADVRRPSEIPERFSGSNSGNTATLSVSGAQAEDEADYYCQVWDSSANAAVFGGGTHLTVLG,0.058,–
scFv C1 (scFv) ELQVVESGGGLVPGGSLRLSCAASGFRVSVNAMSWVRQAPGKGLEWVSHIGSGGITGYADSVKGRFTISRDSAKNTLYLQMNSLKPEDTAVYYCTKRSSGYAWGQGTQVTVSSQAGLTQLPSVSGSPGQKITISCTGSSNNIGAGYSVQWFQQVPGSPPRLLIDGATNRDSGVPDRFSDSRSGSSASLTITGLQAEDEADYYCECYDNSLRGAVFGGGTHLTVLG,1.54,–
scFv D7 (scFv) QVQLVESGGGLVQPGGSLRLSCAASGFTFSWYAMSWVRQGPGKGLEWVSAINGGGGSTSYEDSVKGRFTISRDNAKNTLYLEMNSLKPEDTAVYYCARYSDGYSGSYTYTDMDYWGKGTLVTVSSQAVVTQEPSLSVSPGGTVTLTCGLSSGSVTSSNYPVWYQQTPGQAPHLLIYNTNTRHSGVPSRFSGFISGNKAALTITGAQPEDEADYYCASYRRSGRAVFGGGTHLTVLG,0.1,–
scFv B2 (scFv) EVQLQESGGGLVQPGGSLRLSCATSGFTFSNYYMSWVRQAPGKGPEWVSSIYSDLSTTYYADSVKGRFTISRDRAKNTLSLQMNSLKSEDTAVYYCARLSTVAGVDYWGKGTLVTVSSSYELTQSPSVSVALRQTAKITCGGNNIGSKSAQWYQQKPGQAPVLVIYADSRRPSGIPERFSGSNSGNTATLTISGAQAEDEADYYCQVWDSSAAVFGGGTHLTVLG,0.137,–
scFv C10 (scFv) EVQLVQPGAELRNPGASVKVSCKASGYTFTAYYIDWVRQAPGQGLEWMGRIDPEDGGTTYEQKFQGRVTFTADTSTSTVYVELSSLRSEDTAVYYCARSTEIPTIRYYGMDYWGKGTPVTVSSASAAASGSYELTQSPSVSVALRQTAKITCGGDNIGSKSAQWYQQKPGQAPVLVIYADSRRPSGIPERFSGSNSGNTATLTISGAQAEDEADYYCQVWDSSANAAVFGGGTHLTVLG,0.88,–
scFv B8 (scFv) QVQLVESGGGLVQPGGSLRLSCATSGFTFSNYYMSWVRQAPGKGPEWVSSIYSDLSTTYYADSVKGRFTISRDRAKNTLYLQMNSLKSEDTAVYYCARLSTVAGMDYWGKGTLVTVSSSYELTQSPSVSVALRQTAKITCGGTNIGSKSAQWYQQKPGQAPMLVIYGDSRRPSGIPERFSGSNSGNTATLTISGAQAEDEADYYCQVWDSSANAAVFGGGTHLTVLG,0.205,–
scFv C5 (scFv) QLQLVESGGGLVEPGGSLRLSCAASGFTFSNYYMSWVRQAPGKGPEWVSSIYSDLSTTYYADSVKGRFTISRDRAKNTLYLQMNSLKSEDTAVYYCARLSTVAGVDYWGKGTLVTVSSSYELTQSPSVSVALRQTAKITCGGNNIGSKSAQWYQQKPGQAPVLVIYADSRRPSGIPERFSGSNSGNTATLTISGAQAEDEADYYCQVWDSSSNGAVFGGGTHLTVLG,1.88,–
scFv D8 (scFv) EVQLVESEGGSVQPGDSLRLSCAASGFSFSNAGMSWVRQAPGKGLEWVSAIIPGGYAPYYADSVKGRFTISRDNAKNTVSLQMNSLKPEDTALYYCAKYGGNWDLEVWGQGTLVTVSSQSALTQPPSVSGTLGKTVTISCTGTSSDIGGYNSVSWYQQLPGTAPKLLIYEVNKRASGIPDRFSGSKSGDTASLTISGLQSADEADYYCASYRNTRKSVFGGGTHLTVLG,1.14,–
"scFv D6 (scFv, part only; not given: GS linker, not shown: small tags and cut ends) scFv, part: QLQLVESGGGLVQPGGSLRLSCAASGGIFDVMGWYHQAPGKQRGLVASITPAGSTNYADSVKGRFTISRDNAKNTVYLQMNSLKPDDTGVYYCYADGIDPRYGGDEFWGQGTQVTVSSSYELTQSPSVSVALRQTAKITCGGDNIGSKSAQWYQQKPGQAPVLVIYAGSRRPSGIPERFSGSNSGNTATLTVSGAQAEDEANYSCQVWDSSANASVFGGGTHLTVLG",1.09,–
scFv A4 (scFv) QLQVVESGGGLVQPGGSLRLSCAASGFTFDSYWMYWVRQAPGKGLEWLSAINPGGGMTYYADSVKGRFTIARDNAKNTVYLQMNSLKSEDTAVYYCAKELRGSYYYISSEYDYWGQGTQVTVSSLPVLTQPPSVSGTLGKTVTISCAGTSSDIGDYNYVSWYQQLPGTAPKLLIYKVSTRASGIPDRFSGSKSGNTASLTISGLQSEDEADYYCASYRTSNNVVFGGGTHLTVLG,0.342,–
"scFv C12 (scFv, part only; not given: GS linker, not shown: small tags and cut ends) scFv, part: ELQVVESGGGLVPGGSLRLSCAASGFRVSVNAMSWVRQAPGKGLEWVSHIGSGGITGYADSVKGRFTISRDSAKNTLYLQMNSLKPEDTAVYYCTKRSSGYAWGQGTQVTVSSQAGLTQLPSVSGSPGQKITISCTGSSNNIGAGYSVQWFQQVPGSPPRLLIDGATNRDSGVPDRFSDSRSGSSASLTITGLQAEDEADYYWMLQQPQGVLCSAEGPI",2.56,–
